Numbered stars: 1 amine (or outer) side, 2 acyl side, 3 side chain; on linkers, the order of the positions; unused ones are H or OH. Bridge positions count the residues as written; N and C are the ends. * marks the point of attachment. C20 diacid = O=C(O)CCCCCCCCCCCCCCCCCCC(=O)*; γGlu = O=C(O)[C@H](CCC(=O)[*:2])N[*:1]
T1: rat calcitonin receptor (rat, UniProt P32214 25-516)
T1 construct: whole, on cells; Used as membranes prepared from the transfected cells; also called rCTR; rat calcitonin (a) receptor
T1 sequence (looked up): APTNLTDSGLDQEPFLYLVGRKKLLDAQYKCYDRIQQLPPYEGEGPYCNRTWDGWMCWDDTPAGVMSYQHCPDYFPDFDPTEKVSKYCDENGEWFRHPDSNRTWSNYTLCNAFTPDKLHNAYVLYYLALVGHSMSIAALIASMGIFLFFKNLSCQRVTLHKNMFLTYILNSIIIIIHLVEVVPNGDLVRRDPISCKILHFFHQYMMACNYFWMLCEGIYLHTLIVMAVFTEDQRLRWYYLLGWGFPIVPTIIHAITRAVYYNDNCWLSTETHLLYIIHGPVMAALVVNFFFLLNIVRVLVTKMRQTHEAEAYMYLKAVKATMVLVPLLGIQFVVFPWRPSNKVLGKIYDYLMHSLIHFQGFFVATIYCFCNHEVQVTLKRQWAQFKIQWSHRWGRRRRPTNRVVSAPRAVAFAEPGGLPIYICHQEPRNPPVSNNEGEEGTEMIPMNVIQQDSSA

T2: human calcitonin receptor (human, UniProt P30988 25-474)
T2 construct: whole, on cells; Used as membranes prepared from the transfected cells (Assay VII); also called hCTR; hCT
T2 sequence (looked up): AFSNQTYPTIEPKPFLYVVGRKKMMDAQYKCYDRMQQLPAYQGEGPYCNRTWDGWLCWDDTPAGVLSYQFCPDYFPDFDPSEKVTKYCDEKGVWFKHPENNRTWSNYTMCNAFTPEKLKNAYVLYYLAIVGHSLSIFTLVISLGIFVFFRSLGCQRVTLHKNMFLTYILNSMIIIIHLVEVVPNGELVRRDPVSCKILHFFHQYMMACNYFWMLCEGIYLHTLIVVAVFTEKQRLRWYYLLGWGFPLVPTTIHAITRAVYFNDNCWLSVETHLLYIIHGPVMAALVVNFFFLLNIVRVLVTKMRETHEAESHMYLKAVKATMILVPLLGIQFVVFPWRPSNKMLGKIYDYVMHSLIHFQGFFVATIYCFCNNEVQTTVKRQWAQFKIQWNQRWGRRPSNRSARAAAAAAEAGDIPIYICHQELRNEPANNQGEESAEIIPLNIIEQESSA

T3: rat amylin receptor (rat calcitonin receptor + rat RAMP 3) (rat, UniProt P32214 25-516; Q9JJ73 23-147)
T3 construct: whole, on cells; Used as membranes prepared from the transfected cells; also called rAmylin-R; rat amylin 3(a) receptor
T3 sequence (looked up) 1: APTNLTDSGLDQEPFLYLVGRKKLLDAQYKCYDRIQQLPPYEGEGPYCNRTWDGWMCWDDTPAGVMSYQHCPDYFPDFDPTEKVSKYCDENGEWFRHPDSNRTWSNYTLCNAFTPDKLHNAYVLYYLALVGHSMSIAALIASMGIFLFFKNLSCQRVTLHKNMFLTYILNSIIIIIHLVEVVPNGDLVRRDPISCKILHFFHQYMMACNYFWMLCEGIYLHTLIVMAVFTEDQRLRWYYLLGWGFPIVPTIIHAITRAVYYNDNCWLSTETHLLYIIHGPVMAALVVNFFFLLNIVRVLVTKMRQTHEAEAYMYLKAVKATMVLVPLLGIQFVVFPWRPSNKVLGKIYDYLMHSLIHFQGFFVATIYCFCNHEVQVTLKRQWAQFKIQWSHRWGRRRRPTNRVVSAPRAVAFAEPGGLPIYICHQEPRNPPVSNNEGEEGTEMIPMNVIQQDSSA
T3 sequence (looked up) 2: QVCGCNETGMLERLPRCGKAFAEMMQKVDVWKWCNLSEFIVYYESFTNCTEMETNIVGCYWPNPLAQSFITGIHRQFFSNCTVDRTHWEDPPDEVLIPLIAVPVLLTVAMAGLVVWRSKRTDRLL


Columns and labels:
rat calcitonin receptor [1] = target: T1, rat calcitonin receptor; test: SPA competition with 125I-calcitonin, membranes of BHK cells with rat calcitonin receptor (Assay VIII)
rat calcitonin receptor [2] = target: T1, rat calcitonin receptor; test: ratio IC50 rat calcitonin receptor / IC50 rat amylin receptor (Assays VIII and VI)
[3] = target: T2, human calcitonin receptor; test: ratio IC50 human calcitonin receptor / IC50 human amylin receptor (Assays VII and V)
How it was run: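 IC₅₀ values were derived by one-site competition analysis of SPA counts. Cell membranes (35 ng/μL) with SPA beads were incubated with test compounds for 120 min at 25° C in Hepes buffer, pH 7.4, containing CaCl2, MgCl₂, OA and Tween20.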

[4] = target: T3, rat amylin receptor (rat calcitonin …); test: SPA competition with 125I-rat amylin, membranes of BHK cells with rat calcitonin receptor + rat RAMP3 (Assay VI)

Binder | IC50 (rat calcitonin receptor [1]) | Ratio rCT/rAmylin binding (rat calcitonin receptor [2]) | Ratio hCT/hAmylin binding [3] | IC50 [4]
KCNTATCATQRLANFLRHSSPNFGAIPSSTNVGSKTY (C20 diacid-gGlu acylated on the alpha amino group of the N-terminal residue (Lys 1); disulfide Cys2-Cys7; C-terminal amide, Derivative of human amylin; also called compound 34) [N^α1-[(4S)-4-carboxy-4-(19-carboxynonadecanoylamino)butanoyl]-[Arg17,Pro21,Pro27,Lys35]-h-amylin] | 89.2 nM | 52 | 64.4 | 1.72 nM
{C20 diacid-γGlu}-KCNTATCATQRLANFLRHSSPNFGAIPSSTPVGSETY-NH2 (disulfide 2-7; SMILES CC[C@H](C)[C@H](NC(=O)[C@H](C)NC(=O)CNC(=O)[C@H](Cc1ccccc1)NC(=O)[C@H](CC(N)=O)NC(=O)[C@@H]1CCCN1C(=O)[C@H](CO)NC(=O)[C@H](CO)NC(=O)[C@H](Cc1c[nH]cn1)NC(=O)[C@H](CCCNC(=N)N)NC(=O)[C@H](CC(C)C)NC(=O)[C@H](Cc1ccccc1)NC(=O)[C@H](CC(N)=O)NC(=O)[C@H](C)NC(=O)[C@H](CC(C)C)NC(=O)[C@H](CCCNC(=N)N)NC(=O)[C@H](CCC(N)=O)NC(=O)[C@@H](NC(=O)[C@H](C)NC(=O)[C@@H]1CSSC[C@H](NC(=O)[C@H](CCCCN)NC(=O)CC[C@H](NC(=O)CCCCCCCCCCCCCCCCCCC(=O)O)C(=O)O)C(=O)N[C@@H](CC(N)=O)C(=O)N[C@@H]([C@@H](C)O)C(=O)N[C@@H](C)C(=O)N[C@@H]([C@@H](C)O)C(=O)N1)[C@@H](C)O)C(=O)N1CCC[C@H]1C(=O)N[C@@H](CO)C(=O)N[C@@H](CO)C(=O)N[C@H](C(=O)N1CCC[C@H]1C(=O)N[C@H](C(=O)NCC(=O)N[C@@H](CO)C(=O)N[C@@H](CCC(=O)O)C(=O)N[C@H](C(=O)N[C@@H](Cc1ccc(O)cc1)C(N)=O)[C@@H](C)O)C(C)C)[C@@H](C)O, Derivative of human amylin; also called compound 28) | 54.9 nM | 44.9 | 20.5 | 1.22 nM

The next binders have a lower IC50 (rat calcitonin receptor [1]) than those just listed; values first:

IC50 (rat calcitonin receptor [1]) | Ratio rCT/rAmylin binding (rat calcitonin receptor [2]) | Ratio hCT/hAmylin binding [3] | IC50 [4] | Binder
4.05 nM | 3.1 | 2.1 | 1.3 nM | {C20 diacid-γGlu}-KCNTATCATQRLAEFLRHSSPNFGPILPPTNVGSNTP-NH2 (disulfide 2-7; SMILES CC[C@H](C)[C@H](NC(=O)[C@@H]1CCCN1C(=O)CNC(=O)[C@H](Cc1ccccc1)NC(=O)[C@H](CC(N)=O)NC(=O)[C@@H]1CCCN1C(=O)[C@H](CO)NC(=O)[C@H](CO)NC(=O)[C@H](Cc1c[nH]cn1)NC(=O)[C@H](CCCNC(=N)N)NC(=O)[C@H](CC(C)C)NC(=O)[C@H](Cc1ccccc1)NC(=O)[C@H](CCC(=O)O)NC(=O)[C@H](C)NC(=O)[C@H](CC(C)C)NC(=O)[C@H](CCCNC(=N)N)NC(=O)[C@H](CCC(N)=O)NC(=O)[C@@H](NC(=O)[C@H](C)NC(=O)[C@@H]1CSSC[C@H](NC(=O)[C@H](CCCCN)NC(=O)CC[C@H](NC(=O)CCCCCCCCCCCCCCCCCCC(=O)O)C(=O)O)C(=O)N[C@@H](CC(N)=O)C(=O)N[C@@H]([C@@H](C)O)C(=O)N[C@@H](C)C(=O)N[C@@H]([C@@H](C)O)C(=O)N1)[C@@H](C)O)C(=O)N[C@@H](CC(C)C)C(=O)N1CCC[C@H]1C(=O)N1CCC[C@H]1C(=O)N[C@H](C(=O)N[C@@H](CC(N)=O)C(=O)N[C@H](C(=O)NCC(=O)N[C@@H](CO)C(=O)N[C@@H](CC(N)=O)C(=O)N[C@H](C(=O)N1CCC[C@H]1C(N)=O)[C@@H](C)O)C(C)C)[C@@H](C)O, Derivative of human amylin; also called compound 4)
21.6 nM | 67 | 13.9 | 0.322 nM | {C20 diacid-γGlu}-KCNTATCATQRLANFLRHSSPNFGAIPSSTNVGPETY-NH2 (disulfide 2-7; SMILES CC[C@H](C)[C@H](NC(=O)[C@H](C)NC(=O)CNC(=O)[C@H](Cc1ccccc1)NC(=O)[C@H](CC(N)=O)NC(=O)[C@@H]1CCCN1C(=O)[C@H](CO)NC(=O)[C@H](CO)NC(=O)[C@H](Cc1c[nH]cn1)NC(=O)[C@H](CCCNC(=N)N)NC(=O)[C@H](CC(C)C)NC(=O)[C@H](Cc1ccccc1)NC(=O)[C@H](CC(N)=O)NC(=O)[C@H](C)NC(=O)[C@H](CC(C)C)NC(=O)[C@H](CCCNC(=N)N)NC(=O)[C@H](CCC(N)=O)NC(=O)[C@@H](NC(=O)[C@H](C)NC(=O)[C@@H]1CSSC[C@H](NC(=O)[C@H](CCCCN)NC(=O)CC[C@H](NC(=O)CCCCCCCCCCCCCCCCCCC(=O)O)C(=O)O)C(=O)N[C@@H](CC(N)=O)C(=O)N[C@@H]([C@@H](C)O)C(=O)N[C@@H](C)C(=O)N[C@@H]([C@@H](C)O)C(=O)N1)[C@@H](C)O)C(=O)N1CCC[C@H]1C(=O)N[C@@H](CO)C(=O)N[C@@H](CO)C(=O)N[C@H](C(=O)N[C@@H](CC(N)=O)C(=O)N[C@H](C(=O)NCC(=O)N1CCC[C@H]1C(=O)N[C@@H](CCC(=O)O)C(=O)N[C@H](C(=O)N[C@@H](Cc1ccc(O)cc1)C(N)=O)[C@@H](C)O)C(C)C)[C@@H](C)O, Derivative of human amylin; also called compound 29)
51.5 nM | 21.7 | 20 | 2.37 nM | {C20 diacid-γGlu}-KCNTATCATQRLAEFLRHSSPNFGPILPPTNVGSNTY-NH2 (disulfide 2-7; SMILES CC[C@H](C)[C@H](NC(=O)[C@@H]1CCCN1C(=O)CNC(=O)[C@H](Cc1ccccc1)NC(=O)[C@H](CC(N)=O)NC(=O)[C@@H]1CCCN1C(=O)[C@H](CO)NC(=O)[C@H](CO)NC(=O)[C@H](Cc1c[nH]cn1)NC(=O)[C@H](CCCNC(=N)N)NC(=O)[C@H](CC(C)C)NC(=O)[C@H](Cc1ccccc1)NC(=O)[C@H](CCC(=O)O)NC(=O)[C@H](C)NC(=O)[C@H](CC(C)C)NC(=O)[C@H](CCCNC(=N)N)NC(=O)[C@H](CCC(N)=O)NC(=O)[C@@H](NC(=O)[C@H](C)NC(=O)[C@@H]1CSSC[C@H](NC(=O)[C@H](CCCCN)NC(=O)CC[C@H](NC(=O)CCCCCCCCCCCCCCCCCCC(=O)O)C(=O)O)C(=O)N[C@@H](CC(N)=O)C(=O)N[C@@H]([C@@H](C)O)C(=O)N[C@@H](C)C(=O)N[C@@H]([C@@H](C)O)C(=O)N1)[C@@H](C)O)C(=O)N[C@@H](CC(C)C)C(=O)N1CCC[C@H]1C(=O)N1CCC[C@H]1C(=O)N[C@H](C(=O)N[C@@H](CC(N)=O)C(=O)N[C@H](C(=O)NCC(=O)N[C@@H](CO)C(=O)N[C@@H](CC(N)=O)C(=O)N[C@H](C(=O)N[C@@H](Cc1ccc(O)cc1)C(N)=O)[C@@H](C)O)C(C)C)[C@@H](C)O, Derivative of human amylin; also called compound 6)

Source: US20140087995A1 (published 2014)
